Here are results for one molecule from patent US20210403602A1 (Bristol-Myers Squibb, published 2021).

Assay [1] has as its target T1, denatured recombinant human IDO protein with a 6-His tag and thrombin site linker (His-Tb-IDO) (human, UniProt P14902 1-403).
T1 construct: Immunogen and ELISA coating antigen, used in denatured form; also called denatured tagged antigen
Description: direct ELISA of hybridoma supernatants on plates coated with denatured His-Tb-IDO at 2 ug/mL. Here is the method:
After eleven days, hybridoma culture supernatants were collected and screened by direct ELISA for specific binding to denatured His-Tb-IDO. Briefly, 96-well polystyrene microplates (Corning 9018) were coated overnight at 4C with 60 uL of denatured tagged antigen at 2 ug/mL in PBS. The plates were blocked with 200 uL/well of assay buffer containing 0.5% bovine serum albumin in PBS and washed. After the blocking step, 100 uL of supernatant from individual hybridoma culture wells were added and incubated for one hour on a plate shaker at room temperature. The plates were washed three times with PBS and 100 ul of F(ab′)₂ fragment goat anti-mouse IgG Fcγ (1:1000 dilution) (Jackson ImmunoResearch 115-036-071) was added and incubated for 1 hour at RT and washed again with PBS. The plates were then developed with 100 ul/well of ABTS HRP substrate (Surmodics ABTS-1000-01) for 5 to 10 minutes, and analyzed using a PerkinElmer EnVision microplate reader at 405 nm. The data was analyzed using TIBCO Spotfire.

The target of assay [2] is T2, human Indoleamine 2,3-dioxygenase (IDO) in fixed cells and tissues (human, UniProt P14902 1-403).
T2 construct: also called IDO1; human IDO
T2 sequence (P14902 whole entry): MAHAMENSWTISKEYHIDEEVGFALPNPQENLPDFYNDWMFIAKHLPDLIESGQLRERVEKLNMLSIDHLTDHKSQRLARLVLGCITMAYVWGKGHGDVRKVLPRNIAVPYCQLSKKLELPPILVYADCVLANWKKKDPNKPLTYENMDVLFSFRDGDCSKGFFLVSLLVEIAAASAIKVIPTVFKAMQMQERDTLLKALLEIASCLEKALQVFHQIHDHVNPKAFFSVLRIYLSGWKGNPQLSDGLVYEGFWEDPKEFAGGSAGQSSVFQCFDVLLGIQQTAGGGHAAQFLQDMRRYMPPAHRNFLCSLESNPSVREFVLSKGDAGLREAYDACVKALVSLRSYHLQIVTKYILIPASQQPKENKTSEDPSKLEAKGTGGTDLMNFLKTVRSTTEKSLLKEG
Description: immunohistochemistry on FFPE H1048 cells and cervical SCC tissue, HALO image analysis; antibody concentration printed on the sheet as 0.5 ug/ml, given in the legend as 0.05 ug/ml. The procedure: To further develop a user and clinical friendly assay, mAb 1E7 was optimized for automated IHC using the Leica BondRX platform. The Bond Polymer Refine Detection System (Leica, catalog #DS9800) was used for the detection of IDO1 and all incubations were carried out at room temperature. Briefly, slides were deparaffinized and rehydrated following routine histology procedures. The slides were loaded onto the Leica BondRX automated IHC stainer and antigen retrieved with either the Bond Epitope Retrieval Solution 1 (Leica, catalog #AR9961) or 2 (Leica, catalog #AR9640) for 20 minutes at 95° C. Peroxidase block from the Bond Polymer Refine Detection kit (Leica, catalog #DS9800) was applied to the slides for 10 min, followed by non-specific binding blocking using protein block (Agilent-DAKO, catalog #X0909) supplemented with 0.5% human gamma globulins (Sigma, catalog #G-4386) for 20 min. Primary antibody 1E7 was incubated at 0.03 or 0.05 μg/ml for 60 minutes, and followed by rabbit anti-mouse linker and then anti-rabbit Poly-HRP-IgG from the Bond Polymer Refine Detection Kit for 30 min each step. […] Whole slide digital images of stained slides were captured and viewed using Aperio AT2 ScanScope and e-Slide Manager (Leica), and then analyzed by a pathologist for manual score or with Halo software (Indica) for quantitative image analysis.

T1 sequence (P14902 other isoform, or with tags, fused parts or gaps limits assumed): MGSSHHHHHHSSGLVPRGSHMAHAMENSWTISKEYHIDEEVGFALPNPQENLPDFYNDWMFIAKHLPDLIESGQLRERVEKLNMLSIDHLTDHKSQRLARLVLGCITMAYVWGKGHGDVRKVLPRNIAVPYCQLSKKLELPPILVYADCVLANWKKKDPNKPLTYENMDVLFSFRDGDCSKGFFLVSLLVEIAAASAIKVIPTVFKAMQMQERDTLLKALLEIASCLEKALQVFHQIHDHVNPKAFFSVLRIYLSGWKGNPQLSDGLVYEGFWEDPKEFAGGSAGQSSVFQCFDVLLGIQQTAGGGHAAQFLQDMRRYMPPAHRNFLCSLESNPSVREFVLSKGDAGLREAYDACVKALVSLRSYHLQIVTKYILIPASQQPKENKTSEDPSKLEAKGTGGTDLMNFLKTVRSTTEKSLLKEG

B1: anti-IDO monoclonal antibody 1E7 (antibody, mouse IgG1, kappa, V domains shown)
VH: QVQLQQSGAELAKPGASVKMSCKTSGYTFTSYWMHWVKQRPGQGLEWIGYINPTTGYTDCNQKFKDKATLTADKSSNTAYLQLSSLTSEDSAVYYCARSAMFGRGWGQGTTLTVSS
VL: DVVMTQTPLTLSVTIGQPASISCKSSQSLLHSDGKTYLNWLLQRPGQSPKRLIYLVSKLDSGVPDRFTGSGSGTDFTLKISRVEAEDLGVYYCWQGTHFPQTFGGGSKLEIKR
notes: also called mAb 1E7; IDO mAb 1E7
On to B1, for which the binding result in assay [1] and in assay [2] was “binds” in each case.
